Patent US20260167728A1 (published 2026)
One block for each binder: values may come before it.

Columns and labels:
huCD3e = huCD3e (human, UniProt P07766 23-126); experiment: Octet primary screen, crude lysate
Protocol: Stability and affinity of the individually expressed molecules in the form of crude lysate was evaluated by Octet. […] The binding of these anti-CD3 molecules (CD3.227, CD3.228, CD3.229 and CD3.230) to human and cynomolgus CD3 was measured by Octet and the Tₘ was measured by Differential Scanning Fluorimetry. All variants were paired with an anti-PSMA VHH.

human CD3 [1] = molecular target: T1, human CD3 (human, UniProt P07766 23-126); experiment: Octet, crude lysate
T1 sequence (P07766 23-126 limits assumed): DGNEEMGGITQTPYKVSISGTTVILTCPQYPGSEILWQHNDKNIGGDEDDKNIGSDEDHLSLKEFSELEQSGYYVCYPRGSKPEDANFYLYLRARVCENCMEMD
Protocol: Structural considerations included: possible contact disruption, anticipated steric clashes, side chain charge maintenance and possible pockets filling. Stability and affinity of the individually expressed molecules in the form of crude lysate was evaluated by Octet (ForteBio).

human CD3 [2] = molecular target: T1, human CD3; experiment: Octet
huCD3e-mFc [3] = molecular target: T2, huCD3e-mFc (human, UniProt P07766 23-126); experiment: Pool 3 screen
T2 construct: not shown: mFc, not described
T2 sequence (P07766 23-126): as the sequence (P07766 23-126 limits assumed) above

huCD3e-mFc [4] = molecular target: T2, huCD3e-mFc; experiment: Pool 3 screen, R2
huCD3e-mFc [5] = molecular target: T2, huCD3e-mFc; experiment: Pool 3 screen, R3
huCD3e-Fc = molecular target: T3, huCD3e-Fc (human, UniProt P07766 23-126); experiment: Octet, purified paTCE
T3 construct: not shown: Fc, not described
T3 sequence (P07766 23-126): as the sequence (P07766 23-126 limits assumed) above
Protocol: (§1) […] […] The binding of these anti-CD3 molecules (CD3.227, CD3.228, CD3.229 and CD3.230) to human and cynomolgus CD3 was measured by Octet and the Tₘ was measured by Differential Scanning Fluorimetry. All variants were paired with an anti-PSMA VHH.

cyCD3e-Fc = molecular target: T4, cyCD3e-Fc (cynomolgus, UniProt Q95LI5 22-117); experiment: Octet, purified paTCE
T4 construct: not shown: Fc, not described
T4 sequence (looked up): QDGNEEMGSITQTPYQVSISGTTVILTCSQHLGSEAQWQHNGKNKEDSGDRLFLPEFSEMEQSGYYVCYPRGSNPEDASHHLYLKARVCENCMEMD
Protocol: as §1

human EGFR [6] = molecular target: T5, human EGFR (human, UniProt P00533 25-645, limits assumed); experiment: cell-based or functional assay
human EGFR [7] = molecular target: T5, human EGFR; experiment: BLI, room temperature
Protocol: Each construct was expressed in small-scale and purified. Thermal stability was determined by Differential Scanning Fluorimetry. Melting temperature (Tₘ) determined by Differential Scanning Fluorimetry experiments described herein were performed either in duplicate or triplicate using GloMelt™ dye and QuantStudio5™. GloMelt™ dye undergoes fluorescence enhancement upon binding to hydrophobic regions of denatured proteins. Therefore, the dye can be used to detect protein unfolding or measure thermal stability. GloMelt™ dye is optimized for detection in the SYBR® Green channel of qPCR instruments. The Differential Scanning Fluorimetry experiments were performed in 96-well plates with 10 μg protein/reaction (equal to 0.5 mg/mL final protein concentration), reaction buffer, and GloMelt™ 10× dye according to manufacturer's instructions. Fluorescence of 96-well plates was read and melt curve plots were generated in the QuantStudio5™ qPCR system. Binding affinity was analyzed with bio-layer interferometry at room temperature with human EGFR as the antigen.

human CD3 [8] = molecular target: T1, human CD3; experiment: method not stated

huCD3e, sequence (P07766 23-126): as the sequence (P07766 23-126 limits assumed) above

B1: AC3471 (CD3.23, WT) (bispecific antibody, V domains shown)
VH: EVQLLESGGGIVQPGGSLKLSCAASGFTFNTYAMNWVRQAPGKGLEWVARIRSKYNNYATYYADSVKDRFTISRDDSKNTVYLQMNNLKTEDTAVYYCVRHENFGNSYVSWFAHWGQGTLVTVSS
VL: ELVVTQEPSLTVSPGGTVTLTCRSSNGAVTSSNYANWVQQKPGQAPRGLIGGTNKRAPGTPARFSGSLLGGKAALTLSGVQPEDEAVYYCALWYPNLWVFGGGTKLTVL
notes: Pool 2 format (remarks)
Kd (huCD3e): 13.5 nM

B2: AC2717 (CD3.23, WT) (bispecific antibody, V domains shown)
VH: EVQLLESGGGIVQPGGSLKLSCAASGFTFNTYAMNWVRQAPGKGLEWVARIRSKYNNYATYYADSVKDRFTISRDDSKNTVYLQMNNLKTEDTAVYYCVRHENFGNSYVSWFAHWGQGTLVTVSS
VL: ELVVTQEPSLTVSPGGTVTLTCRSSNGAVTSSNYANWVQQKPGQAPRGLIGGTNKRAPGTPARFSGSLLGGKAALTLSGVQPEDEAVYYCALWYPNLWVFGGGTKLTVL
notes: Pool 2 format (remarks); paired with an anti-PSMA VHH variant
Kd (huCD3e): 12.9 nM

B4: AC3768 (CD3.23 control) (scFv, V domains shown)
VH: EVQLLESGGGIVQPGGSLKLSCAASGFTFNTYAMNWVRQAPGKGLEWVARIRSKYNNYATYYADSVKDRFTISRDDSKNTVYLQMNNLKTEDTAVYYCVRHENFGNSYVSWFAHWGQGTLVTVSS
VL: ELVVTQEPSLTVSPGGTVTLTCRSSNGAVTSSNYANWVQQKPGQAPRGLIGGTNKRAPGTPARFSGSLLGGKAALTLSGVQPEDEAVYYCALWYPNLWVFGGGTKLTVL
notes: Pool 3 format (remarks)
Kd (human CD3 [2]): 4.67 nM
Kd (huCD3e-mFc [3]): 4.67 nM
Kd (huCD3e-mFc [4]): 8 nM
Kd (huCD3e-mFc [5]): 5.6 nM

B10: AC2908 (EGFR.60/CD3.23 paTCE) (bispecific antibody)
scFv 1: EIVLTQSPGTLSLSPGERATLSCQASQDISNYLNWYQQKPGQAPRLLIYDASNLETGIPDRFSGSGSGTDFTLTISRLEPEDFAVYYCQHFDHLPLAFGQGTKVEIKGATPPETGAETESPGETTGGSAESEPPGEGQVQLQQWGAGLLKPSETLSLTCAVYGGSVSSGDYYWTWIRQPPGKGLEWIGHIYYSGNTNYNPSLKSRVTISVDTSKNQFSLKLSSVTAADTAVYYCARDRVTGAFDIWGQGTLVTVSS
scFv 2: ELVVTQEPSLTVSPGGTVTLTCRSSNGAVTSSNYANWVQQKPGQAPRGLIGGTNKRAPGTPARFSGSLLGGKAALTLSGVQPEDEAVYYCALWYPNLWVFGGGTKLTVLGATPPETGAETESPGETTGGSAESEPPGEGEVQLLESGGGIVQPGGSLKLSCAASGFTFNTYAMNWVRQAPGKGLEWVARIRSKYNNYATYYADSVKDRFTISRDDSKNTVYLQMNNLKTEDTAVYYCVRHENFGNSYVSWFAHWGQGTLVTVSS
notes: EGFR library format (remarks)
EC50 HT-29 (pM), in vitro cytotoxicity, E:T 5:1 (human EGFR [6]): 94 pM
Kd (human EGFR [7]): 7.3 nM
Kd (human CD3 [8]): ~203 nM

B11: AC2920 (EGFR.72/CD3.23 paTCE) (bispecific antibody)
scFv 1: EIVLTQSPATLSLSPGERATLSCQASQDISNYLNWYQQKPGQAPRLLIYDASNLETGIPARFSGSGSGTDFTLTISSLEPEDFAVYYCQHFDHLPLAFGQGTKVEIKGATPPETGAETESPGETTGGSAESEPPGEGQVQLQQWGAGLLKPSETLSLTCAVYGGSVSSGDYYWTWIRQPPGKGLEWIGHIYYSGNTNYNPSLKSRVTISVDTSKNQFSLKLSSVTAADTAVYYCARDRVTGAFDIWGQGTLVTVSS
scFv 2: ELVVTQEPSLTVSPGGTVTLTCRSSNGAVTSSNYANWVQQKPGQAPRGLIGGTNKRAPGTPARFSGSLLGGKAALTLSGVQPEDEAVYYCALWYPNLWVFGGGTKLTVLGATPPETGAETESPGETTGGSAESEPPGEGEVQLLESGGGIVQPGGSLKLSCAASGFTFNTYAMNWVRQAPGKGLEWVARIRSKYNNYATYYADSVKDRFTISRDDSKNTVYLQMNNLKTEDTAVYYCVRHENFGNSYVSWFAHWGQGTLVTVSS
notes: EGFR library format (remarks)
EC50 HT-29 (pM), in vitro cytotoxicity, E:T 5:1 (human EGFR [6]): 85 pM
Kd (human EGFR [7]): 4.4 nM
Kd (human CD3 [8]): ~203 nM

Second part, the binder after the results:

Kd (human CD3 [1]): 8.5 nM
B3: AC3364 (CD3.23-L7, WT) (bispecific antibody, V domains shown)
VH: EVQLLESGGGIVQPGGSLKLSCAASGFTFNTYAMNWVRQAPGKGLEWVARIRSKYNNYATYYADSVKDRFTISRDDSKNTVYLQMNNLKTEDTAVYYCVRHENFGNSYVSWFAHWGQGTLVTVSS
VL: ELVVTQEPSLTVSPGGTVTLTCRSSNGAVTSSNYANWVQQKPGQAPRGLIGGTNKRAPGTPARFSGSLLGGKAALTLSGVQPEDEAVYYCALWYPNLWVFGGGTKLTVL
notes: Pool 1 format (remarks)

Kd (huCD3e-Fc): 131 nM
koff (huCD3e-Fc): 0.0289 s⁻¹
kon (huCD3e-Fc): 220000 M⁻¹ s⁻¹
Kd (cyCD3e-Fc): 130 nM
koff (cyCD3e-Fc): 0.0312 s⁻¹
kon (cyCD3e-Fc): 240000 M⁻¹ s⁻¹
B5: CD3.23 anti-CD3 scFv (scFv, V domains shown)
VH: EVQLLESGGGIVQPGGSLKLSCAASGFTFNTYAMNWVRQAPGKGLEWVARIRSKYNNYATYYADSVKDRFTISRDDSKNTVYLQMNNLKTEDTAVYYCVRHENFGNSYVSWFAHWGQGTLVTVSS
VL: ELVVTQEPSLTVSPGGTVTLTCRSSNGAVTSSNYANWVQQKPGQAPRGLIGGTNKRAPGTPARFSGSLLGGKAALTLSGVQPEDEAVYYCALWYPNLWVFGGGTKLTVL
notes: Parental domain

Kd (huCD3e): 32.8 nM
B6: AC3682 (CD3.251) (bispecific antibody, V domains shown)
VH: EVQLVESGGGIVQPGGSLRLSCAASGFTFNTYAMNWVRQAPGKGLEWVGRIRSKRNNYATTYADSVKDRFTISRDDSKNTVYLQMNSLKTEDTAVYYCVRHENFGNSYVSWFAHWGQGTLVTVSS
VL: ELVVTQEPSLTVSPGGTVTLTCRSSNGAVTSSNYANWVQQKPGQAPRGLIGGTNKRAPGTPARFSGSLLGGKAALTLSGVQPEDEAVYYCALWYPNLWVFGGGTKLTVL
notes: Pool 2 format (remarks)

Kd (human CD3 [2]): 5.38 nM
Kd (huCD3e-mFc [3]): 5.38 nM
Kd (huCD3e-mFc [4]): 5.7 nM
B7: AC3822 (CD3.318) (scFv, V domains shown)
VH: EVQLVESGGGIVQPGGSLRLSCAASGFTFSTYAMNWVRQAPGKGLEWVGRIRTKRNDYATYYADSVKGRFTISRDDSKNTLYLQMNSLKTEDTAVYYCVRHENFGNSYVSWFAHWGQGTLVTVSS
VL: ELVVTQEPSLTVSPGGTVTLTCRSSNGAVTSSNYANWVQQKPGQAPRGLIGGTNKRAPGTPARFSGSLLEGKAALTLSGVQPEDEAVYYCALWYPNLWVFGGGTKLTVL
notes: Pool 3 format (remarks)

Kd (human CD3 [2]): 3.11 nM
Kd (huCD3e-mFc [3]): 3.11 nM
Kd (huCD3e-mFc [4]): 3.7 nM
B8: AC3799 (CD3.295) (scFv, V domains shown)
VH: EVQLVESGGGIVQPGGSLRLSCAASGFTFSTYAMNWVRQAPGKGLEWVGRIRTKRNNYATYYADSVKGRFTISRDDSKNTVYLQMNSLKTEDTAVYYCVRHENFGNSYVSWFAHWGQGTLVTVSS
VL: ELVVTQEPSLTVSPGGTVTLTCRSSNGAVTSSNYANWVQQKPGQAPRGLIGGTNKRAPGTPARFSGSLNGGKAALTLSGVQPEDEAVYYCALWYPNLWVFGGGTKLTVL
notes: Pool 3 format (remarks)

Kd (human CD3 [2]): 3.89 nM
Kd (huCD3e-mFc [3]): 3.89 nM
Kd (huCD3e-mFc [4]): 4.1 nM
Kd (huCD3e-mFc [5]): 3 nM
B9: AC3796 (CD3.292) (scFv, V domains shown)
VH: EVQLVESGGGIVQPGGSLRLSCAASGFTFSTYAMNWVRQAPGKGLEWVGRIRTKRNNYATYYADSVKGRFTISRDDSKNTVYLQMNSLKTEDTAVYYCVRHENFGNSYVSWFAHWGQGTLVTVSS
VL: ELVVTQEPSLTVSPGGTVTLTCRSSNGAVTSSNYANWVQQKPGQAPRGLIGGTNKRAPGTPARFSGSLLGGKAALTLSGVQPEDEAVYYCALWYPNLWVFGGGTKLTVL
notes: Pool 3 format (remarks)
